Results reported in the Human Domainome abundance scans (Beltran et al. 2025).
± gives the uncertainty stated by the source.

B1: Transcription factor SOX-11, residues 50 to 117; numbered along this chain, P35716 (parent)
chain: KRPMNAFMVWSKIERRKIMEQSPDMHNAEISKRLGKRWKMLKDSEKIPFIREAERLRLKHMADYPDYK
B2: Cell division cycle and apoptosis regulator protein 1, residues 625 to 674; numbered along this chain, Q8IX12 (parent)
chain: ISTPTHWSKLDPKTMKVNDLRKELESRALSSKGLKSQLIARLTKQLKVEE

Variants of: B1
Test: abundance fitness (aPCA) (normalised: wild type 0, dead -1); higher = more abundant; growth selection in yeast, the domain comes from the species named
Conditions: Homo sapiens

E52A and E52Y are within error of each other in abundance fitness: -0.462 ± 0.084 for the first, -0.598 ± 0.082 for the second.

Going from E52P to E52M, the abundance fitness rises from -0.982 ± 0.15 to -0.396 ± 0.12.

E52H and E52D are within error of each other in abundance fitness: -0.564 ± 0.078 for the first, -0.438 ± 0.088 for the second.

E52F and E52C are within error of each other in abundance fitness: -0.546 ± 0.067 for the first, -0.515 ± 0.064 for the second.

Compared with E52V, E52I is higher in abundance fitness: -0.404 ± 0.057 for the first, -0.278 ± 0.061 for the second.

K59A and K59L are within error of each other in abundance fitness: 0.087 ± 0.062 for the first, 0.12 ± 0.053 for the second.

K59V and K59S are within error of each other in abundance fitness: 0.012 ± 0.051 for the first, -0.017 ± 0.044 for the second.

Going from K59N to K59W, the abundance fitness falls from 0.026 ± 0.053 to -0.323 ± 0.15.

K59T and K59H are within error of each other in abundance fitness: 0.075 ± 0.069 for the first, 0.106 ± 0.06 for the second.

K59I and K59M are within error of each other in abundance fitness: -0.054 ± 0.054 for the first, 0.039 ± 0.089 for the second.

First: K59Y
Second: K59E
The abundance fitness of the first is lower: -0.192 ± 0.056 for the first, 0.084 ± 0.16 for the second.

Compared with K59F, K59P is lower in abundance fitness: -0.166 ± 0.054 for the first, -0.403 ± 0.089 for the second.

K59D and K59C are within error of each other in abundance fitness: -0.052 ± 0.061 for the first, -0.099 ± 0.055 for the second.

Going from R51Y to R51V, the abundance fitness rises from -0.238 ± 0.058 to -0.075 ± 0.049.

Going from R51T to A62N, the abundance fitness rises from -0.29 ± 0.075 to 0.111 ± 0.043.

First: A62L
Second: A62R
The abundance fitness of the first is higher: -0.123 ± 0.044 for the first, -0.225 ± 0.053 for the second.

Going from A62I to A62D, the abundance fitness rises from -0.182 ± 0.046 to 0.092 ± 0.05.

Compared with A62W, A62V is higher in abundance fitness: -0.43 ± 0.098 for the first, -0.139 ± 0.047 for the second.

A62Y and A62M are within error of each other in abundance fitness: -0.163 ± 0.043 for the first, -0.181 ± 0.082 for the second.

A62H and A62F are within error of each other in abundance fitness: -0.251 ± 0.059 for the first, -0.2 ± 0.042 for the second.

A62G and A62S are within error of each other in abundance fitness: 0.079 ± 0.05 for the first, 0.116 ± 0.039 for the second.

A62K and A62C are within error of each other in abundance fitness: -0.085 ± 0.08 for the first, -0.062 ± 0.047 for the second.

Compared with A62Q, R57D is lower in abundance fitness: 0.146 ± 0.096 for the first, -0.137 ± 0.073 for the second.

Going from R57M to R57L, the abundance fitness falls from -0.068 ± 0.13 to -0.335 ± 0.065.

Going from R57W to R57P, the abundance fitness falls from -0.114 ± 0.1 to -0.426 ± 0.11.

First: R57V
Second: R57C
The abundance fitness of the first is lower: -0.373 ± 0.066 for the first, -0.186 ± 0.058 for the second.

R57Y and R57H are within error of each other in abundance fitness: -0.248 ± 0.056 for the first, -0.126 ± 0.067 for the second.

First: R57I
Second: R57G
The abundance fitness of the first is lower: -0.384 ± 0.065 for the first, -0.167 ± 0.059 for the second.

R57A and R57T are within error of each other in abundance fitness: 0.023 ± 0.063 for the first, -0.023 ± 0.07 for the second.

First: R57Q
Second: R57F
The abundance fitness of the first is higher: -0.057 ± 0.12 for the first, -0.432 ± 0.054 for the second.

First: R57K
Second: R57N
The abundance fitness of the first is lower: 0.137 ± 0.11 for the first, 0.414 ± 0.045 for the second.

Work on R57E yielded an abundance fitness of 0.283 ± 0.13.

Variants of: B2
Test: as above
Conditions: Homo sapiens

T43I and T43E are within error of each other in abundance fitness: -0.05 ± 0.06 for the first, -0.117 ± 0.037 for the second.

First: T43L
Second: K35G
The abundance fitness of the first is higher: -0.043 ± 0.031 for the first, -0.356 ± 0.031 for the second.

N18P and V17L are within error of each other in abundance fitness: 0.072 ± 0.027 for the first, 0.026 ± 0.034 for the second.

R41V and E23H are within error of each other in abundance fitness: -0.417 ± 0.043 for the first, -0.48 ± 0.067 for the second.

Compared with E23M, Q45R is higher in abundance fitness: -0.965 ± 0.13 for the first, 0.01 ± 0.041 for the second.

First: I39Q
Second: I39Y
The abundance fitness of the first is higher: -0.102 ± 0.062 for the first, -0.279 ± 0.042 for the second.

Compared with I39L, V48I is higher in abundance fitness: -0.183 ± 0.04 for the first, 0.054 ± 0.059 for the second.

V48L and V48Q are the same in abundance fitness: -0.06 ± 0.045 for the first, -0.06 ± 0.042 for the second.

Compared with E50M, E50R is higher in abundance fitness: -0.641 ± 0.16 for the first, -0.27 ± 0.068 for the second.

First: D19I
Second: D19Q
The abundance fitness of the first is lower: -0.044 ± 0.034 for the first, 0.033 ± 0.03 for the second.

First: W7V
Second: T3K
The abundance fitness of the first is lower: -0.157 ± 0.033 for the first, 0.042 ± 0.052 for the second.

Going from T3R to T3W, the abundance fitness falls from -0.076 ± 0.034 to -0.252 ± 0.049.

First: K22G
Second: S2Q
The abundance fitness of the first is lower: -0.233 ± 0.038 for the first, -0.06 ± 0.068 for the second.

S2G and S2R are within error of each other in abundance fitness: -0.003 ± 0.031 for the first, -0.021 ± 0.032 for the second.

Compared with S2F, R21G is lower in abundance fitness: 0.103 ± 0.073 for the first, -0.603 ± 0.04 for the second.

Compared with R21P, K9C is higher in abundance fitness: -0.682 ± 0.098 for the first, -0.243 ± 0.064 for the second.

Compared with K9P, L24D is lower in abundance fitness: -0.576 ± 0.057 for the first, -0.881 ± 0.13 for the second.

Compared with L24H, K32C is higher in abundance fitness: -0.742 ± 0.15 for the first, -0.18 ± 0.036 for the second.

First: K32V
Second: K13N
The abundance fitness of the first is lower: -0.233 ± 0.032 for the first, 0.081 ± 0.067 for the second.

First: K13G
Second: M15L
The abundance fitness of the first is lower: -0.255 ± 0.036 for the first, -0.172 ± 0.034 for the second.

M15S and M15K are within error of each other in abundance fitness: -0.75 ± 0.036 for the first, -0.668 ± 0.091 for the second.

First: S36L
Second: A40Y
The abundance fitness of the first is lower: -0.159 ± 0.037 for the first, 0.219 ± 0.043 for the second.

Going from A40M to A40N, the abundance fitness falls from 0.034 ± 0.035 to -0.066 ± 0.036.

A40S and A40L are within error of each other in abundance fitness: -0.028 ± 0.033 for the first, -0.095 ± 0.036 for the second.

First: L10R
Second: L20D
The abundance fitness of the first is higher: -0.593 ± 0.032 for the first, -0.741 ± 0.083 for the second.

Compared with L20I, L20S is lower in abundance fitness: 0.136 ± 0.063 for the first, -0.859 ± 0.058 for the second.

L20M and S8N are within error of each other in abundance fitness: -0.115 ± 0.032 for the first, -0.09 ± 0.03 for the second.

Going from S8C to S8P, the abundance fitness falls from -0.007 ± 0.065 to -0.616 ± 0.16.

S30H and S30L are within error of each other in abundance fitness: -0.152 ± 0.064 for the first, -0.184 ± 0.029 for the second.

R27F and R27Q are within error of each other in abundance fitness: -1.02 ± 0.16 for the first, -0.845 ± 0.098 for the second.

Going from E49N to E49D, the abundance fitness rises from -0.909 ± 0.12 to -0.41 ± 0.048.

Going from L42V to L42G, the abundance fitness rises from -0.634 ± 0.049 to -0.516 ± 0.039.

Going from L42I to D11K, the abundance fitness rises from -0.231 ± 0.041 to 0.154 ± 0.059.

D11N and D11I are within error of each other in abundance fitness: 0.054 ± 0.051 for the first, 0.066 ± 0.034 for the second.

K47M and K47D are within error of each other in abundance fitness: -0.266 ± 0.053 for the first, -0.204 ± 0.05 for the second.

H6A and H6L are within error of each other in abundance fitness: 0.014 ± 0.036 for the first, 0.067 ± 0.038 for the second.

H6V and K16G are within error of each other in abundance fitness: -0.003 ± 0.044 for the first, -0.059 ± 0.041 for the second.

First: K16N
Second: K16F
The abundance fitness of the first is higher: 0.033 ± 0.06 for the first, -0.191 ± 0.077 for the second.

Compared with K16L, L38Y is lower in abundance fitness: -0.061 ± 0.053 for the first, -0.832 ± 0.075 for the second.

First: L38D
Second: L29M
The abundance fitness of the first is lower: -0.332 ± 0.045 for the first, -0.021 ± 0.052 for the second.

L29E and L29N are within error of each other in abundance fitness: -0.46 ± 0.046 for the first, -0.552 ± 0.083 for the second.

Going from L29V to K44N, the abundance fitness rises from -0.476 ± 0.034 to -0.091 ± 0.067.

K44Y and K44V are within error of each other in abundance fitness: -0.229 ± 0.046 for the first, -0.31 ± 0.042 for the second.

First: L34N
Second: P4S
The abundance fitness of the first is lower: -0.157 ± 0.067 for the first, 0.15 ± 0.046 for the second.

P4Y and P4G are within error of each other in abundance fitness: 0.012 ± 0.066 for the first, 0.1 ± 0.033 for the second.

Going from Q37H to A28G, the abundance fitness rises from -0.455 ± 0.11 to 0.145 ± 0.033.

First: A28C
Second: A28Y
The abundance fitness of the first is lower: 0.054 ± 0.057 for the first, 0.181 ± 0.069 for the second.

A28I and S26W are within error of each other in abundance fitness: 0.074 ± 0.064 for the first, 0.047 ± 0.029 for the second.

Going from G33L to T14M, the abundance fitness rises from -1.04 ± 0.052 to -0.013 ± 0.044.

Going from T14R to T5G, the abundance fitness falls from 0.178 ± 0.034 to -0.225 ± 0.033.

Going from T5D to S31I, the abundance fitness rises from -0.689 ± 0.094 to 0.047 ± 0.06.

S31L and S31E are within error of each other in abundance fitness: -0.084 ± 0.032 for the first, -0.106 ± 0.044 for the second.
